Consider 5 molecules from publication doi:10.1101/2022.04.27.489743 (bioRxiv, 2022).

Holding throughout (assay): ITC
(ITC needs no label: the signal is the heat of the interaction.)

The target in one assay is AnkG R6-16 (UniProt O70511).
Assay [1] has as its target T1, AnkG ANK repeats (R1-24, residues 38-855) (UniProt O70511 38-855).
T1 sequence: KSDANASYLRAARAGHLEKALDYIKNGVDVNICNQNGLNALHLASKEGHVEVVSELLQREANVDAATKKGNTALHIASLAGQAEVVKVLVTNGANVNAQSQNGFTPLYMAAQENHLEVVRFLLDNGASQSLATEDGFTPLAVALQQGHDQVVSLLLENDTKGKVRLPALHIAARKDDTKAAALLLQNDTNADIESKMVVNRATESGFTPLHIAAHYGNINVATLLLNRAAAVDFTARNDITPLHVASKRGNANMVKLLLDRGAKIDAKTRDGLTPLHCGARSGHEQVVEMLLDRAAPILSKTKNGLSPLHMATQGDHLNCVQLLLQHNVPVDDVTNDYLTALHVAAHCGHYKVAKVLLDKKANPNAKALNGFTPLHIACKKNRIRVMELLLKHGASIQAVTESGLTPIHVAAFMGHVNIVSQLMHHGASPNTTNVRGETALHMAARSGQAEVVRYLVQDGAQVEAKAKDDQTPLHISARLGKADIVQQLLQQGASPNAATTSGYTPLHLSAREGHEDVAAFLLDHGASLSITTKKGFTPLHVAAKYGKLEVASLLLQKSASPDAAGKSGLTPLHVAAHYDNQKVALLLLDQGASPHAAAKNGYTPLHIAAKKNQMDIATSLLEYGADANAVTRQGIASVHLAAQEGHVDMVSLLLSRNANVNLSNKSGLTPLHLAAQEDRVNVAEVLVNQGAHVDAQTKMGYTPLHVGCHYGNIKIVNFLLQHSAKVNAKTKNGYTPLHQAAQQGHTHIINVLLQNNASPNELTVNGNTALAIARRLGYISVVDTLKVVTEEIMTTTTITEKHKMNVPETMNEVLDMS

Assay [2] concerns the target T2, AnkG 275-571 (AnkG R8-16) (UniProt O70511 275-571).
T2 sequence: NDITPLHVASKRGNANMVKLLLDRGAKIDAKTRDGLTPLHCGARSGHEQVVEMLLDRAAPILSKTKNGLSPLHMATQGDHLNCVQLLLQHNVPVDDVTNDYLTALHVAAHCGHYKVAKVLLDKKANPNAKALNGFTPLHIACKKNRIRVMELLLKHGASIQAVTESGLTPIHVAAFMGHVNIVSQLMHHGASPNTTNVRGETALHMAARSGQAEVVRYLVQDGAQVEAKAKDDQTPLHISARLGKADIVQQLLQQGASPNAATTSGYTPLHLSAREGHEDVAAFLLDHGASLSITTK

A value given as a limit tells only on which side of the number the result lay.

AnkG R6-16, sequence (O70511 whole entry, the tested form may be a part): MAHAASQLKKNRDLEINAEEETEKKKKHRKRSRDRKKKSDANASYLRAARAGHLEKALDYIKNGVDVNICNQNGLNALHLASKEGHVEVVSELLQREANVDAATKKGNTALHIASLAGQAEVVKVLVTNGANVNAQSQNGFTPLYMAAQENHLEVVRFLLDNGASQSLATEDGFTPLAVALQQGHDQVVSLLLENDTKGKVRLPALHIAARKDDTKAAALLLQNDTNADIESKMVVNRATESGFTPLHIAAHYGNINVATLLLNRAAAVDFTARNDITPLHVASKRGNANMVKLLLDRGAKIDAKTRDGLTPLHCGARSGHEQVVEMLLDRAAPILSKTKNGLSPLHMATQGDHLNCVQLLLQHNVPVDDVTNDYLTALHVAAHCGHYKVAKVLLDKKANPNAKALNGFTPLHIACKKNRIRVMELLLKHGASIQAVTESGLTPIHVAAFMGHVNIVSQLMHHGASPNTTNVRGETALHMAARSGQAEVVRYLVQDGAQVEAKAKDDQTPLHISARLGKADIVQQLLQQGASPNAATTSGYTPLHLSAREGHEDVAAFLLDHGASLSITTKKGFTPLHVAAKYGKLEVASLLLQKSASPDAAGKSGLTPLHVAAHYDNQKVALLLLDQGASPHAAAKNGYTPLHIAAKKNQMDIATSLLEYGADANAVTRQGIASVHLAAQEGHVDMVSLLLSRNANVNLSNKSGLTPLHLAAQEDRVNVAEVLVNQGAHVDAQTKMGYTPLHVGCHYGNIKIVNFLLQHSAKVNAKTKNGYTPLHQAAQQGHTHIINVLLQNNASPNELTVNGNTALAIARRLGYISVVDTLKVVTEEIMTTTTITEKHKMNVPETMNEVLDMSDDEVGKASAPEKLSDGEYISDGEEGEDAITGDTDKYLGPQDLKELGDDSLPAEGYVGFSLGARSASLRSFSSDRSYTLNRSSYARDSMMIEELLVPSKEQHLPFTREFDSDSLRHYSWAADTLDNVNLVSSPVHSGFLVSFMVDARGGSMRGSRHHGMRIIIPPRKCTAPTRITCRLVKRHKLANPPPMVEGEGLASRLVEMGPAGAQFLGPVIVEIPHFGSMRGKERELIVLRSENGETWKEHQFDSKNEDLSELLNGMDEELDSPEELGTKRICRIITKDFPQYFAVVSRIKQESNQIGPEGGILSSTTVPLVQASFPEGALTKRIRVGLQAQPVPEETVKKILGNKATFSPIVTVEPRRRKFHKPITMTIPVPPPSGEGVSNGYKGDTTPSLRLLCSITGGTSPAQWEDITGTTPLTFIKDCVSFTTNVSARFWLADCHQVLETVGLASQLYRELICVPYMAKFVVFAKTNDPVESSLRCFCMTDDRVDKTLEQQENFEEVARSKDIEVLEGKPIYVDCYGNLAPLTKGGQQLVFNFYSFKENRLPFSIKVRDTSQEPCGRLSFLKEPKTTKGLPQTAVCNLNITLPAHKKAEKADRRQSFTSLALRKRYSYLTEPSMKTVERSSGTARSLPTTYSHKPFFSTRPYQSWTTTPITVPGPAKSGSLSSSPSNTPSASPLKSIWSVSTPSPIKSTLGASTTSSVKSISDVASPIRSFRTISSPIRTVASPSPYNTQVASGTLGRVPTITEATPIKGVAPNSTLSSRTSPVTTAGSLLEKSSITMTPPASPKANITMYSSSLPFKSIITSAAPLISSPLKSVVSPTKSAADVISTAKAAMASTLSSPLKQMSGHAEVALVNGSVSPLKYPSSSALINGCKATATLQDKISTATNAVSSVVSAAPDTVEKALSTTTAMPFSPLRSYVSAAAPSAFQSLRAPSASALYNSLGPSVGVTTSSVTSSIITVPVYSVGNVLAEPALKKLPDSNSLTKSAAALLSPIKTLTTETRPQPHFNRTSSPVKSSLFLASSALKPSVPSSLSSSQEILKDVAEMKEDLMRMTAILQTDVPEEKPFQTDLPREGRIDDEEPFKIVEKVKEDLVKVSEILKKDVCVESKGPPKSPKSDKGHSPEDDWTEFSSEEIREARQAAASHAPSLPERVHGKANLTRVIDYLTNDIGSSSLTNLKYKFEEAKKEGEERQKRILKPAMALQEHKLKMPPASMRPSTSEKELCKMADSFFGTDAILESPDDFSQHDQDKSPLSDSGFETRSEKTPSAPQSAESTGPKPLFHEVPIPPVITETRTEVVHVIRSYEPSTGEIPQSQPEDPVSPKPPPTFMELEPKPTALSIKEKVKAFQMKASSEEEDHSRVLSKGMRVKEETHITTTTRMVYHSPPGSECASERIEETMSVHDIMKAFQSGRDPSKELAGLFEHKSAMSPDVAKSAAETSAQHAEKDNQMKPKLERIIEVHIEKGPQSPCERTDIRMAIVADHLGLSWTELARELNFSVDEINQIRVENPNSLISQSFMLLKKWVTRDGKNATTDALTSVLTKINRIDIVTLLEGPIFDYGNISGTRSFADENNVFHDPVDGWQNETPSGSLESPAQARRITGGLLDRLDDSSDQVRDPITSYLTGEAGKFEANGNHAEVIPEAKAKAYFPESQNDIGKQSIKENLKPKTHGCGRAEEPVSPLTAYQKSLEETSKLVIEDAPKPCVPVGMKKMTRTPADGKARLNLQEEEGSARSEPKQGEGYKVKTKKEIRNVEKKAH

In turn, “Nfasc ankyrin binding domain (ABD), residues 1187-1214 (from UniProt P97685 1187-1214) (domain or fragment)” returned a Kd with AnkG R6-16 of 290 nM.

On to GEGQFNADGSFIGQYTV [Nfasc 1198-1214 E1204A], for which the “fold decrease in binding affinity against Nfasc 1198-1214 WT” value in assay [1] was about 27 fold.

Take GEGQFNEDGSFIGQETV [Nfasc 1198-1214 Y1212E]: in assay [1], the “fold decrease in binding against Nfasc 1198-1214 WT” value is about 9 fold.

Regarding GEGQQNEDGSFIGQYTV [Nfasc 1198-1214 F1202Q], the “fold decrease in binding against Nfasc 1198-1214 WT” value in assay [1] was over 20 fold.

Take SDDSLVDYGEGGEGQFNEDGSFIGQYTV (domain or fragment) [Nfasc ankyrin binding domain (ABD), residues 1187-1214]: the Kd in assay [2] is about 1200 nM; in assay [1], about 220 nM.

As a reminder, the Kd is the equilibrium constant for the complex coming apart. Higher therefore signals lower affinity.
